Columns and labels:
[1] = system: MM cell lines (MM1s, OPM1, RPMI); assay: Cell viability: sensitivity to bortezomib after culture with plasma and ctDNA; assay type: cell-based, human
Experimental: BR: Bortezomib resistant, BS: Bortezomib sensitive. Error bars indicate the standard deviation of triplicate experiments.
Cell viability: Cell viability assays were performed in 96 well, black, clear-bottom microplates. For MM cell line studies, 3×10^4 cells were cultured for 24 hours with media containing 10% human plasma of a bortezomib-resistant or-sensitive patient or a control non-cancer patient. Cells were then cultured for 24 hours with titrating concentrations of bortezomib (doses: 0, 5, 10, 15, 50 nM; Sigma). For PC cell lines viability studies, 1×10^4 cells were incubated for 24 hours with media containing plasma of a gemcitabine-resistant patient or non-cancer patient. Subsequently, titrating concentrations of gemcitabine (doses: 0, 10, 25, 50, 100, 200 μM; Sigma-Aldrich, MO) were added to the culture media and cells were then incubated for 96 hours. CellTiter-Blue Cell Viability Assay was used to evaluate cell viability according to the manufacturer's instructions (Promega). Cell viability was measured by a fluorescent protocol in an microplate reader. Experiments were performed in triplicate of 3 independent studies.

[2] = system: plasma cells (CD138+) and non-plasma cells (CD138−) of bone marrow; assay: Cell targeting in bone marrow samples from patients with and without multiple myeloma, flow cytometry; assay type: cell-based, human
Experimental: FIG. 10 provides illustrative flow cytometry scatterplots displaying the cell capture of AluSp, MER11, and control transposon sequence in plasma cells (CD138+) and non-plasma cells (CD138−) derived from bone marrow of multiple myeloma patients.
Data for plasma cells (CD138+) and non-plasma cells (CD138−) are separately shown.
Cell targeting of the AluSp and MER11C sequences was tested in bone marrow samples derived from patients with and without multiple myeloma.

MM1s and U266 cells = assay: Cell capture of several transposons in two MM cell lines at 4 hours, flow cytometry; assay type: cell-based, human; details: 4 hours of culture
Experimental: The variability of cell capture of several transposons was tested in two MM cell lines at 4 hours of culture.

[3] = system: MM1s (multiple myeloma) cell genome; assay: ctDNA coculture with MM1s cells, whole genome sequencing: genomic insertion sites, transposons at insertion points and SNVs (multiple myeloma); assay type: cell-based, human; details: TABLE 7, multiple myeloma co-culture
Experimental: The integration of ctDNAs into the host cell genome was evaluated. ctDNA was extracted from patient plasma, cultured for 24 hours with cells of a matching cancer cell type or non-matching cancer cell type, and whole genome sequencing was performed. The cell lines used were MM1s (multiple myeloma, MM) and MIA (pancreatic cancer, PC).
Single nucleotide variants (SNVs) unique to the ctDNA that were found in the host cell genome under matching coculture conditions were identified.
The sequence data was used to reconstruct genomic contigs for each experimental condition by de novo assembly. […] Coculture contigs carrying a ctDNA insertion were identified using NucDiff analysis. BLAST alignment analysis further validated the gain of ctDNA fragments in coculture conditions and identified the transition points of ctDNA insertion (FIGS. 3A-3C). […] The remaining 20% inserted into a chromosomal location distinct from their site of origin.
Experiments were designed to identify the presence of transposons in ctDNA fragments. To map ctDNA genomic junctions more precisely, a PACBIO probe was ligated to multiple myeloma and pancreatic cancer ctDNA samples to label their 5′ and 3′ ends. Whole-genome sequencing of DNA from cells with ctDNA genomic integration was done using the Illumina platform. De novo assembly was performed on the sequencing output. ctDNA contigs containing PACBIO adaptor were then matched to those contigs containing inserted ctDNA sequences identified in the coculture experiments. Transposable element on ctDNA sequences at the insertion points (<100 nucleotides from transition point between cell and ctDNA) were detected and classified using RepeatMaster.
A search was conducted for transposons that preferentially target cells of matching tumor types. The lists of transposons identified at the ctDNA insertion point in matching and mismatched coculture conditions were compared (e.g., MM ctDNA with MM cells or PC cells). Transposons were selected that were uniquely or preferentially inserted in the matching conditions.
In multiple myeloma, AluSp, MER11, MER11C, AluJb, and L2a, among other subfamilies of retrotransposons were identified at the MM ctDNA insertion sites (FIG. 5B and TABLE 7).
Whole-genome sequencing and Whole exon sequencing: ctDNA was extracted from 10 MM and 10 PC patients. DNA from CD138 (+) cells and from cell lines used in in vitro experiments (MM1s and MIA) was extracted using Blood & Cell Culture DNA Mini Kit (Quiagen, MD). DNA from […] paraffin embedded pancreatic tumors was obtained using QIAamp DNA FFPE Tissue Kit Print (Qiagen, MD).
After extraction, ctDNA was ligated to the PACBIO adaptor ([…]) using the ABM DNA Library Prep Kit for Illumina Sequencing (Applied Biological Materials Inc. Canada). PACBio-labeled ctDNA and regular ctDNA were subjected to standard methods for library preparation and sequencing using Illumina and Agilent protocols, respectively. Applied Biological Materials Inc. prepared the libraries and performed whole-exon and -genome sequencing. The average target coverage was 50×.
Identification of transposable elements and its nucleotide variants: To determine the locations of transposable-like regions in contigs, sequences were analyzed and transposable elements (TEs) were identified and classified using RepeatMasker version 4.1.0 and the Dfam database (release 3.1) of repetitive DNA families was used as a reference for identifying repeats in ctDNA contig sequences that were part of qualifying structural events. For each repeat sequence identified by RepeatMasker, the overall frequency of the specific repeat (e.g., for AluSp or L1) and their parent class (e.g., SINE) was computed.
Once the TE elements were identified, hit repeats/TE sequences, unique contigs for all samples, and insertion sequence were aligned with MAFFT software version. […]

[4] = system: MM cell lines MM1S, JK6L, and RPMI; assay: Uptake of additional MM2 fragments, fluorescent microscopy; assay type: cell-based; details: Fluorescein 12 dCTP or 5′FAM labelling
Experimental: FIG. 21 provides microcopy images showing uptake of 5′ fluorescently labelled synthetic DNA fragments derived from a multiple myeloma ctDNA by MM cells (JK6L) or non-MM cells.
Additional fragments were generated to analyze further the sequence to identify a region that contributes to uptake by MM cells (e.g., a recognition sequence). The following sequences were generated with Fluorescein 12 dCTP or 5′FAM labelling:
The fluorescent DNA sequences were incubated with multiple cell lines (e.g., MM cell lines MM1S, JK6L, and RPMI, and non-MM cell lines HT1080, HCT116, and DU145) and uptake was evaluated by fluorescent microscopy. […] Specificity of uptake by MM cells was preserved as shown by a lack of uptake by HT1080 and HCT116 cells (FIG. 21).

[5] = system: multiple myeloma cell line; assay: Uptake of fluorescent MM2 fragments, fluorescent microscopy; assay type: cell-based; details: Fluorescein 12 dCTP labelled PCR products
Experimental: FIG. 19 provides fluorescence microcopy images showing uptake of fluorescently labelled synthetic DNA derived from a multiple myeloma ctDNA (MM2 (1-290), MM2 (89-290), MM2 (177-290), and MM2 (1-201), and MM2 (1-113)), or a control sequence.
Fluorescein 12 dCTP from Perkin Elmer was used to label the PCR products, which were purified after the reaction.
In an initial study, fragments were generated as follows:
The fluorescent DNA sequences were incubated with multiple a myeloma cell line and uptake was evaluated by fluorescent microscopy.
The study was repeated with 5′FAM-labelled primers, with similar results.

[6] = system: MM/B cell lines (MM1S and RPMI); assay: Uptake of MM2 fragments in different cell types; assay type: cell-based; details: DAPI and Texas red-phalloidin counterstain
Description: (§1) FIG. 20 provides fluorescence microcopy images evaluating uptake of fluorescently labelled synthetic DNA derived from a multiple myeloma ctDNA (MM2 (1-290), MM2 (89-290), MM2 (177-290), and MM2 (1-201), and MM2 (1-113)) by multiple myeloma/B cell lines (MM1S and RPMI) and cell lines of other cell types (HFF—fibroblast, DU145—prostate cancer, MCF10A breast).
(§2) A follow-up experiment evaluated uptake of the fragments in different cell types, with counterstaining to identify nuclei (DAPI) and cytoplasm (Texas red-phalloidin).

[7] = system: HFF (fibroblast), DU145 (prostate cancer), and MCF10A (breast); assay: Uptake of MM2 fragments in different cell types; assay type: cell-based
Description: as §1, §2

Question: How did the sensitivity to bortezomib ([1]; MM1s and OPM1, ctDNA of BR patient added to non-cancer patient plasma) turn out when CC(C)C[C@H](NC(=O)[C@H](Cc1ccccc1)NC(=O)c1cnccn1)B(O)O [bortezomib] was run?
Answer: decreased the sensitivity

Question: What about the sensitivity to bortezomib ([1]; RPMI cells, ctDNA of BS patient added to control plasma) of the same molecule?
Answer: increased sensitivity

Question: And the resistance to bortezomib ([1]; ctDNA of a BR patient added to plasma of a BR patient)?
Answer: further increased

B1: CY5-MER11C: synthesized MM retrotransposon MER11C, labelled with CY5 (nucleic acid, listed as Homo sapiens)
DNA: TATCGAAAATTCACCCCCGATATTCACGTAGGTTCTTTTCTATTTTCCCTAAGCGTCGGCAGGTTTGAGAAATAAAGGGACAGAGTACAAAAGAGAGAAATTTTAAAGCTGGGCGTCCGGGGGAGACATCACATGTTGGTAGGTTCCATGATGCCCCACAAGCCGTAAAAACCAGCAAGTTTTTATTAGTGATTTTCAAAAGGGGAGGGAGTGTACGAATAGGTGTGGGTCACAGAGATCACGTGCTTCACAAGGTAATAGAATATCACAAGGCAAATGGAGGCAGGGCGAGATCACAGGACCACAGGACCGGGGTGAAATTAAAATTGCTAATGAAGTTTTGGGCACCATTGTCATTGATAACATCTTATCAGGAGACAGGGTTTGAGAGACAACCGGTCTGACCAAAATTTATTAGGTGGGAATTTCCTCGTCCTAATAAGCCTGGGAGTGCTATGGGAGACTGGGGCTTATTTCATCCCGTAGAGGCAACCATAAAAGACAGGCCCAAGCGGCCATTTAGAGCCTCCCAGGACATTCTCTTTCTCAGGGTGTTCCTTGCTGAGAAAAAGAATTCAGATATTTCTCCATTTGCTTTTGAAAGAAGAGAAATATGGCTCTGTTCCCGGCTCACGGCGCAGATTTAAGGTTATCTCCTTTTCCCTGAACAATTGCTGTTATCCTGTTCTTTTTTCAAGGTGCCCAGATTTCATATTGTTCAAACACACATGCTTACAATTTGTGCAGTTAAGCAATATCACAGGGTCCTGAGGGACATACATCCTCCTCAGCTGACAGGATTAAGAGATTAAAGTAAAGACAGGCATAGGAAATCACAAGGGTATTGATTGGGGAAGTGATAAGTGTCCATGAAATCTTCACAATTTATGTTTAGAGATTGCAGTAAAGACAGGCATAAGAAATTATAAAAGTATTAATTTGGGGAACTAATAAATGTCCATGAAATCTTCACAATCCACGTTCTTCTGCCATGGCTTCAGCCGGTCCCTCCGTTCGGGGTCCCTGACTTCCCGCAACA
modifications: CY5 label
Question: How did the “signal in plasma cells of MM patients vs non-MM CD138 (−) cells compartment” value ([2]; 14 hours) turn out when B1 was run?
Answer: higher levels of signal

Question: And the “CY5 positive plasma cells” value ([2]; 14 hours of culture, vs control sequence or PC specific sequence)?
Answer: more CY5 positive plasma cells

Question: What about the cell capture (MM1s and U266 cells) of the same molecule?
Answer: higher than that of the other transposons, the control sequence, and PC transposons

Question: And the blast orientation ([3]; BLAST alignment orientation)?
Answer: Plus/Plus

Question: What about the blast chr ([3]; chromosome with the longest result for BLAST analysis of the full contig) of the same molecule?
Answer: chr14

Question: And the Distance from insertion ([3]; distance between insertion and the transposon (0 if they overlap))?
Answer: 0

Question: What about the “Location relative to insertion” value ([3]; location of the transposon relative to the insertion on the contig) of the same molecule?
Answer: intersect

B2: MM2 (88-168): fluorescently labelled fragment of MM2 (nucleic acid, listed as Homo sapiens)
DNA: CCAGGATGGAGTGCAAGGGATCTTGGCTCACCACAGCCTCCGCCTCTTGGGTTCAAGTGATTCTTCTGCCTCAGCCTCCC
modifications: DNA, all phosphodiester, methylation of C not given here; fluorescein label via fluorescein-12-dCTP or 5' FAM primer
Question: How did the “uptake by MM cells” value [4] turn out when B2 was run?
Answer: sufficient for uptake

B3: MM2 (1-201): fluorescently labelled fragment of MM2 (1-290) (nucleic acid, listed as Homo sapiens)
DNA: ACCCGGCCTTGGACACGCCATTTTCAACTCCGTGGTGCGTTTTTTTTTTTTTTTTTTTTTTTTTGTAATGGAGTTTCGCTCTTGTTGCCCAGGATGGAGTGCAAGGGATCTTGGCTCACCACAGCCTCCGCCTCTTGGGTTCAAGTGATTCTTCTGCCTCAGCCTCCCAAGTAGCTGGGATTATAAGCACCCACCACCACG
modifications: fluorescent label
Question: What does the source list for B3?
Answer: uptake [5]: observed; uptake [6]: observed; uptake [7]: not

B4: MM2 (1-113): fluorescently labelled fragment of MM2 (1-290) (nucleic acid, listed as Homo sapiens)
DNA: ACCCGGCCTTGGACACGCCATTTTCAACTCCGTGGTGCGTTTTTTTTTTTTTTTTTTTTTTTTTGTAATGGAGTTTCGCTCTTGTTGCCCAGGATGGAGTGCAAGGGATCTTG
modifications: DNA, all phosphodiester, methylation of C not given here; fluorescein label via fluorescein-12-dCTP or 5' FAM primer
Question: How did the uptake [5] turn out when B4 was run?
Answer: not

Question: What about the uptake [6] of the same molecule?
Answer: not

B5: MM2 (177-290): fluorescently labelled fragment of MM2 (1-290) (nucleic acid, listed as Homo sapiens)
DNA: GGGATTATAAGCACCCACCACCACGCCCAGCTAATTTTGTATTTTTTAGAAGAGATGGAGTTTCTCCAGTTGGCCAGGATGGTCTGTATATCCTGACCTCATGATCTGCCCACC
modifications: DNA, all phosphodiester, methylation of C not given here; fluorescein label via fluorescein-12-dCTP or 5' FAM primer
Question: B5 was tested. Which uptake [5] did it give?
Answer: observed

Question: What about the uptake [6] of the same molecule?
Answer: observed

Question: And the uptake [7]?
Answer: not

Reference: patent US20250241939A1, “NUCLEIC ACID-BASED DELIVERY SYSTEMS AND USES THEREOF” (Kodikaz Therapeutic Solutions, Inc., priority 2022, published 2025)
